Changes are numbered by the printed parent chain. Names may count otherwise.

The nature of data set [1]: Solubility/stability and function of A1M mutation variants. The data set is classed as physicochemical. Particulars: mutated A1M variants.
The subject of data set [2] is Rps19 deficient erythroid cells. Kind of data set: Free unbound intracellular heme in Kit+ bone marrow cells expanded in erythroid culture. The data set is classed as cell-based, mouse. The settings on record: erythroid culture with A1M or vehicle for 72 hours; FIG. 4C. The method, then: (§1) FIG. 4: A1M treatment improves expansion of erythroid cells from a murine DBA model and patients. CD117 (Kit)+ bone marrow cells were treated with Doxycycline to induce Rps19 deficiency. Twenty four hours after Doxycycline administration, cells were treated with drugs interfering with iron or heme availability. The ATP measuring platform CellTiter Glo was used to monitor viable cells after 5 days of expansion. In A) a schematic picture of the drug screen is shown. B) Proliferation of bone marrow cells (as described in A) from Rps19 inducible mice treated with respective drug compounds interfering with iron or heme availability is presented. Shown is also a schematic picture of drug activity where A1M is shown to have intracellular effects by reducing unbound heme in erythroblast. The cells were cultured in erythroid promoting media for 5 days. Kruskal-Wallis non parametric test with Dunn's multiple comparisons test was used for statistical analysis, and genotypes were compared to respective control, separately. p-values: *≤005, **≤001, ***≤0001, ****≤00001. C) Concentration of free unbound intracellular heme in Kit+ bone marrow cells from the Rps19 deficient mouse expanded in erythroid culture with A1M or vehicle for 72 hours. Mann Whitney non parametric analysis was employed for statistical analysis within each genotype. […]

The test system of data set [3] is Rps19 deficient erythroid precursors. Kind of data set: Drug screen: proliferation of Kit+ bone marrow cells in erythroid culture (CellTiter Glo). Particulars: 5 days expansion; A1M at 5 and 10 μM; FIG. 4B. The data set is classed as cell-based, mice. The method, then: as §1, with “genotype. D) Expansion of CD34+ erythroid precursors from peripheral blood of DBA patients with mutations in RPS19, RPL35a and RPS26, or healthy controls treated with A1M or vehicle in erythroid promoting media for 7 days.” for “genotype.”
(§2) The drugs administered 24 hours after Doxycycline administration were A1M (supplied by A1M Pharma AB, Sweden), N-methyl mesoporphyrin IX (AH Diagnostics, Denmark), Succinylacetone, hemin, Deferoxamine, Ferrostatin and N-acetyl-L-cystein and hemopexin (Sigma-Aldrich). Cell expansion 5 days after drug administration was measured using CellTiter Glo (Promega, US), which measures the number of viable and metabolically active cells in culture based on quantitation of the ATP present. Plates were read on Victor 3 Multilabel counter (PerkinElmer, US).
For orientation: ATP-based viability assays read luminescence as a measure of living cells.

A further data set relates to WT cells. The data set is described as above. The data set is classed as cell-based, mice. Particulars: 5 days expansion; FIG. 4B. The method, then:
as §1, with “genotype. D) Expansion of CD34+ erythroid precursors from peripheral blood of DBA patients with mutations in RPS19, RPL35a and RPS26, or healthy controls treated with A1M or vehicle in erythroid promoting media for 7 days.” for “genotype.”
as §2

The test system of a further data set is bone marrow cells. Kind of data set: Bone marrow flow cytometry after 177Lu-DOTATATE exposure (radiation-induced damage). The data set is classed as in vivo, BALB/c mice. Particulars: 4 days. Here is the method:
(§3) Female BALB/c mice (Taconic, Denmark) at the age of 12 weeks were used in this study. Two groups (n=5-10) received a subcutaneous administration of either A1M (20 mg/kg) or vehicle buffer (10 mM Na-phosphate pH 7.4+0.15 M NaCl+12 mM histidine) followed by an intravenous (i.v.) injection, 30 minutes later, of ^177Lu-DOTATATE (150 MBq). A control group (n=5-10) received a subcutaneous administration of vehicle, followed by, 30 minutes after, an i.v. injections of NaCl. Animals were sacrificed 4 days post-injections.
After 4 days (post ^177Lu-DOTATATE administration), blood, for peripheral blood cell and reticulocyte count, was sampled from vena saphena, on non-anesthetized animals, in EDTA pre-coated vials (Microvette CB 300 K2E, Sarstedt, Nümbrecht, Germany) and placed on a rocking mixer in room temperature followed by analysis as described below. […]
Bone marrow cells were isolated by crushing femur in PBS containing 2% FCS (GIBCO, Waltham, Mass., USA) and passing them though a 70 um cell strainer to obtain single cell suspension. […] All experiments were performed on LSRFortessa (BD Biosciences) flow cytometry and analyzed with FlowJo software.
Bone marrow cellularity was counted from the single cell suspension using hematology analyzer SYSMEX KX-21 N.
(Flow cytometry measures light scatter and fluorescence of single cells or particles in a stream.)

The conditions of data set [4]: general background on A1M secreted into the blood stream; cited from earlier work.
Data set [5] relates to cells from healthy subjects. Description: Expansion of CD34+ erythroid precursors from peripheral blood (manual cell count). The data set is classed as cell-based, human. Particulars: 5 μM A1M every 2-3 days, 7-8 days; FIG. 4D. The method, then: as §1
Data set [6] relates to erythroid precursors from DBA patients. The description is as above. The data set is classed as cell-based, human. The settings on record: 5 μM A1M every 2-3 days, 7-8 days; mutations in RPS19, RPS26, RPL35a; FIG. 4D. The method, then: as §1
The next data set concerns peripheral blood cells. Kind of data set: Peripheral blood reticulocyte count after 177Lu-DOTATATE exposure. The data set is classed as in vivo, BALB/c mice. The settings on record: A1M 20 mg/kg subcutaneous 30 minutes prior to 150 MBq 177Lu-DOTATATE i.v.; 4 days; FIG. 2B. The method, then: as §3
After 4 days (post ^177Lu-DOTATATE administration), blood, for peripheral blood cell and reticulocyte count, was sampled from vena saphena, on non-anesthetized animals, in EDTA pre-coated vials (Microvette CB 300 K2E, Sarstedt, Nümbrecht, Germany) and placed on a rocking mixer in room temperature followed by analysis as described below. Thereafter the animals were anaesthetized using isoflurane, sacrificed by cervical dislocation and femur (left and right) sampled and placed in PBS, pH 7.4 in a 24 well plate standing on wet ice.
Following collection of peripheral blood SYSMEX KX-21N hematology analyzer was used for determining Blood parameters. Reticulocyte count was determined using LSR Fortessa or Canto II flow cytometry using Retic-Count (BD Biosciences).

B1: (M41K+R66H): A1M with point mutations M41K and R66H (protein, UniProt P02760 20-203, looked up, variant M41K R66H)
Alpha-1-microglobulin: GPVPTPPDNIQVQENFNISRIYGKWYNLAIGSTCPWLKKIKDRMTVSTLVLGEGATEAEISMTSTHWRKGVCEETSGAYEKTDTDGKFLYHKSKWNITMESYVVHTNYDEYAIFLTKKFSRHHGPTITAKLYGRAPQLRETLLQDFRVVAQGVGIPEDSIFTMADRGECVPGEQEPEPILIPRV
modifications: Alpha-1-microglobulin
Regarding B1, the “solubility and/or stability and function” value in data set [1] was “increased solubility and/or stability with maintained function”.

B2: (M41K+N17,96D): A1M with point mutations M41K and N17,96D (protein, UniProt P02760 20-203, looked up, variant M41K N17D N96D)
Alpha-1-microglobulin: B1 Alpha-1-microglobulin with N17D, H66R, N96D
modifications: Alpha-1-microglobulin
notes: A1M with point mutations M41K and N17,96D
Regarding B2, the “solubility and/or stability and function” value in data set [1] is “increased solubility and/or stability with maintained function”.

B3: (R66H+N17,96D): A1M with point mutations R66H and N17,96D; RMC-035 corresponds to this variant (protein, UniProt P02760 20-203, looked up, variant R66H N17D N96D)
Alpha-1-microglobulin: B1 Alpha-1-microglobulin with N17D, K41M, N96D
modifications: Alpha-1-microglobulin RMC-035
Take B3: in data set [1], the “solubility and/or stability and function” value is listed as “increased solubility and/or stability with maintained function”.

B4: (M41K+R66H+N17,96D): A1M with point mutations M41K, R66H and N17,96D (protein, UniProt P02760 20-203, looked up, variant M41K R66H N17D N96D)
Alpha-1-microglobulin: B1 Alpha-1-microglobulin with N17D, N96D
modifications: Alpha-1-microglobulin
notes: A1M with point mutations M41K, R66H and N17,96D
With B4, the “solubility and/or stability and function” value in data set [1] is “increased solubility and/or stability with maintained function”.

B5: alpha-1-microglobulin (protein, listed as Homo sapiens)
chain: GPVPTPPDNIQVQENFDISRIYGKWYNLAIGSTCPWLKKIMDRMTVSTLVLGEGATEAEISMTSTHWRKGVCEETSGAYEKTDTDGKFLYHKSKWDITMESYVVHTNYDEYAIFLTKKFSRHHGPTITAKLYGRAPQLRETLLQDFRVVAQGVGIPEDSIFTMADRGECVPGEQEPEPILIPR
modifications: Wildtype human A1M, no mutations
notes: Recombinant human A1M, variant RMC-035 corresponding to A1M (R66H+N17,96D), supplied by A1M Pharma AB
Turning to B5, the “level of unbound intracellular heme” value in data set [2] is given as “significantly reduce the level of unbound intracellular heme back to WT levels”. In addition, in data set [3], the “proliferation of Rps19 deficient erythroid precursors” value is listed as “increased proliferation”. Also, the “proliferation of WT cells” value in the data set with WT cells is “No effect on proliferation”. Besides, the “percentage of viable reticulocytes in bone marrow” value in the data set with bone marrow cells (A1M 20 mg/kg subcutaneous 30 minutes prior to 150 MBq 177Lu-DOTATATE i.v., FIG. 2A) is given as “completely preserved reticulocyte population at the level of the non-radiation exposed control animals”. In the data set with bone marrow cells (A1M 20 mg/kg subcutaneous 30 minutes prior to 150 MBq 177Lu-DOTATATE, FIG. 3), the “protection of the proerythroblast population” value is “displayed protection of the proerythroblast population”. Moreover, the “T½ of transport across the vessel walls to the extravascular compartment” value in data set [4] was 2 to 3 min. For the same molecule, the “expansion of cells from healthy subjects” value in [5] is “no such trend was observed”. Moreover, the “expansion of erythroid precursors from three DBA patients” value in [6] was “improved expansion”. Also, the “percentage of viable reticulocytes in peripheral blood” value in the data set on peripheral blood cells is “completely preserved reticulocyte population at the level of the non-radiation exposed control animals”.

B6: hemopexin: mainly extracellular heme scavenger (Sigma-Aldrich) (protein, UniProt P02790 24-462, looked up)
Hemopexin: TPLPPTSAHGNVAEGETKPDPDVTERCSDGWSFDATTLDDNGTMLFFKGEFVWKSHKWDRELISERWKNFPSPVDAAFRQGHNSVFLIKGDKVWVYPPEKKEKGYPKLLQDEFPGIPSPLDAAVECHRGECQAEGVLFFQGDREWFWDLATGTMKERSWPAVGNCSSALRWLGRYYCFQGNQFLRFDPVRGEVPPRYPRDVRDYFMPCPGRGHGHRNGTGHGNSTHHGPEYMRCSPHLVLSALTSDNHGATYAFSGTHYWRLDTSRDGWHSWPIAHQWPQGPSAVDAAFSWEEKLYLVQGTQVYVFLTKGGYTLVSGYPKRLEKEVGTPHGIILDSVDAAFICPGSSRLHIMAGRRLWWLDLKSGAQATWTELPWPHEKVDGALCMEKSLGPNSCSANGPGLYLIHGPNLYCYSDVEKLNAAKALPQPQNVTSLLGCTH
Turning to B6, in data set [3], the “proliferation of Rps19 deficient erythroid precursors” value is reported as “no effect”.

Source of the values: patent publication US20200345810A1, “USE OF ALPHA-1-MICROGLOBULIN FOR PROTECTION OF BONE MARROW CELLS” (GUARD THERAPEUTICS INTERNATIONAL AB, priority 2017, published 2020).
